From publication PMC7425896, “Polypeptides derived from α-Synuclein binding partners to prevent α-Synuclein fibrils interaction with and take-up by cells” (PLoS ONE, 2020) come the findings set out here.

The Kd is the concentration at which binding is half-saturated.

The assay has as its target α-Synuclein fibrils (preformed fibrils of recombinant human wild-type αSyn) (human, UniProt P37840 1-140). The experiment in a line: co-sedimentation; as a4 with a range of peptide concentrations (0–200 μM) and αSyn fibrils (100 μM); bound peptide by reversed phase chromatography. The note with it: both partners purified.

B1: Hsc-6 (Hsc70-derived peptide) (peptide)
peptide: TKQTQTFTTYSDNQPGVLIQVYE
notes: Hsc70 residues 422–444; source: synthetic peptide; bought: GL Biochem Ltd
Turning to B1, the Kd was greater than 100 µM.

B2: Hsc-10 (Hsc70-derived peptide) (peptide)
peptide: GILNVSAVDKSTGKENKITITN
notes: Hsc70 residues 484–505; source: synthetic peptide; bought: GL Biochem Ltd
As for B2, the Kd was greater than 100 µM.
